Laboratory results as given in US20200317768A1 (published 2020).

T1: cynomolgus monkey FcγRIIa1 extracellular domain, His-tagged (cynomolgus monkey)
T1 construct: also called cyno FcγRIIa1; cynoFcgRIIa1; not shown: C-terminal His-tag
T1 chain: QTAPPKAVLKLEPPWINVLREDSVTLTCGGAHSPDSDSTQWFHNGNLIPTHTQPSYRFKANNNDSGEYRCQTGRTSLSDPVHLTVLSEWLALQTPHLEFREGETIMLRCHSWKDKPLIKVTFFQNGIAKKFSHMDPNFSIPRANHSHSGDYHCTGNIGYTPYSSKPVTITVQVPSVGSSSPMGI

T2: cynomolgus monkey FcγRIIa3 extracellular domain, His-tagged (cynomolgus monkey)
T2 construct: also called cyno FcγRIIa3; cynoFcgRIIa3; not shown: C-terminal His-tag
T2 chain: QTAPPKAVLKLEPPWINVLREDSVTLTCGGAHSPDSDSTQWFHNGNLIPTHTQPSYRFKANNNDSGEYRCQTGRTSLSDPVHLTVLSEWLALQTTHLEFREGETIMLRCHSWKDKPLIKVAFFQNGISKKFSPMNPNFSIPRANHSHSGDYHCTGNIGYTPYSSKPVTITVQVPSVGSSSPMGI

T3: cynomolgus monkey FcγRIIb extracellular domain, His-tagged (cynomolgus monkey)
T3 construct: also called cyno FcγRIIb; cynoFcγRIIb; not shown: C-terminal His-tag
T3 chain: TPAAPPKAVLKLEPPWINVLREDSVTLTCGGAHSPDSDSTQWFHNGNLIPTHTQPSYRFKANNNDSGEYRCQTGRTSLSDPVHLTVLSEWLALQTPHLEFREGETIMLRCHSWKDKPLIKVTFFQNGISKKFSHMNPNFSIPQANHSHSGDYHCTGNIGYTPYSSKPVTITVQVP

T4: cynomolgus monkey FcγRIIIaS extracellular domain, His-tagged (cynomolgus monkey, UniProt Q8SPW2 21-206 at identity 1.00))
T4 construct: also called cyno FcγRIIIaS; cynoFcγRIIIaS; not shown: C-terminal His-tag
T4 chain: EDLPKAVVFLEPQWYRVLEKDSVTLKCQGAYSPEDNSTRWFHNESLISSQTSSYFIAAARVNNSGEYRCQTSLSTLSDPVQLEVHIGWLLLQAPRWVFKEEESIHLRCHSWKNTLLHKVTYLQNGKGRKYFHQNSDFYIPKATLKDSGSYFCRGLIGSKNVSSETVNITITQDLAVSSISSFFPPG

T5: human FcγRIIaH extracellular domain, His-tagged (human, UniProt P12318 34-217)
T5 construct: also called human FcγRIIa (type H); FcgRIIaH; not shown: C-terminal His-tag
T5 sequence: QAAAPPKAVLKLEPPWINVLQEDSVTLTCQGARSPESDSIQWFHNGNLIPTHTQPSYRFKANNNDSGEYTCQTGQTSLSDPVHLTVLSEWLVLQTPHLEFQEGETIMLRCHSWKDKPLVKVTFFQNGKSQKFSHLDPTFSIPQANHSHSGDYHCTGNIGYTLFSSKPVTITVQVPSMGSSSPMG

T6: human FcγRIIaR extracellular domain, His-tagged (human, UniProt P12318 34-217)
T6 construct: also called human FcγRIIa (type R); FcgRIIaR; not shown: C-terminal His-tag
T6 chain: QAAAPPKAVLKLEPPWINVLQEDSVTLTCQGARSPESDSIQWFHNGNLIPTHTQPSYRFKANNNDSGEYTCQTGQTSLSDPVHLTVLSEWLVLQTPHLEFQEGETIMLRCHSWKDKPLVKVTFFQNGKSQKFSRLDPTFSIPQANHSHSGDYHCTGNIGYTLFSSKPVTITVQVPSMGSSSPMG

T7: human FcγRIIb extracellular domain, His-tagged (human, UniProt P31994 43-217)
T7 construct: also called FcgRIIb (human); not shown: C-terminal His-tag
T7 sequence: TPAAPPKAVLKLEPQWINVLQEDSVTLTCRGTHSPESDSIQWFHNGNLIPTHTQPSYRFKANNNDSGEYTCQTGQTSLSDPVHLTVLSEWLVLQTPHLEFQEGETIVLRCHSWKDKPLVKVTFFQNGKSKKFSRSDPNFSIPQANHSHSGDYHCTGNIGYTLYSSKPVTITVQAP


Key:
Experiment in all cases: SPR (BIACORE); KD of SG1 divided by KD of variant;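 note: relative to parent M103205H795-SG1 carrying the SG1 human heavy chain constant region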
[1] = biological target: T1, cynomolgus monkey FcγRIIa1 …
[2] = biological target: T2, cynomolgus monkey FcγRIIa3 …
[3] = biological target: T3, cynomolgus monkey FcγRIIb extracellular …
[4] = biological target: T4, cynomolgus monkey FcγRIIIaS …
[5] = biological target: T5, human FcγRIIaH extracellular domain, …
[6] = biological target: T6, human FcγRIIaR extracellular domain, …
[7] = biological target: T7, human FcγRIIb extracellular domain, …
[8] = biological target: T8, human FcγRIIIaV extracellular domain, His-tagged (human, UniProt P08637 17-208)
T8 construct: also called FcgRIIIaV; not shown: C-terminal His-tag
T8 sequence (P08637 17-208 F176V): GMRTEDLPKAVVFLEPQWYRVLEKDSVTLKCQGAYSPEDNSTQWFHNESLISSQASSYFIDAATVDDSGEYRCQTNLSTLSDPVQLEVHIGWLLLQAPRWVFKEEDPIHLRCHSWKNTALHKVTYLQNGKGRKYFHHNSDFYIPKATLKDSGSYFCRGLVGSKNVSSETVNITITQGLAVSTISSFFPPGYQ

Binder | KD fold (SG1 = 1) [1] [fold] | KD fold (SG1 = 1) [2] [fold] | KD fold (SG1 = 1) [3] [fold] | KD fold (SG1 = 1) [4] [fold] | KD fold (SG1 = 1) [5] [fold] | KD fold (SG1 = 1) [6] [fold] | KD fold (SG1 = 1) [7] [fold] | KD fold (SG1 = 1) [8] [fold]
M103205H795-MY459/M103202L889-SK1 (antibody, human IgG1, kappa, copies: 2 + 2) heavy: QVTLKESGPVLVKPTETLTLTCTVSGIDLSHDDISWVRQAPGKGLEWVGIISYAGSTYYASWAKGRLTISKDTSKNQVVLTMTNMDPVDTATYYCARGVPAYSHGGDLWGQGTLVTVSSASTKGPSVFPLAPSSKSTSGGTAALGCLVKDYFPEPVTVSWNSGALTSGVHTFPAVLQSSGLYSLSSVVTVPSSSLGTQTYICNVNHKPSNTKVDKKVEPKSCDKTHTCPPCPDPELLTGPSVFLFPPKPKDTLMISRTPEVTCVVVDVSDEDPEVKFNWYVDGVEVHNAKTKPREEQYNSTYRVVSVLTVLHQDWLNGKEYKCKVSNKALPKPIEKTISKAKGQPREPQVYTLPPSREEMTKNQVSLTCLVKGFYPSDIAVEWESNGQPENNYKTTPPVLDSDGSFFLYSKLTVDKSRWQQGNVFSCSVMHEALHNHYTQKSLSLSP light: DIVMTQSPATLSLSPGERATLSCTSSQSVYHANWLSWFQQKPGQPPKLLIYWASTLAYGVPSRFSGSGSGTDFTLTISSLQPEDAATYYCAGGYGGGRYAFGQGTKVEIKRTVAAPSVFIFPPSDEQLKSGTASVVCLLNNFYPREAKVQWKVDNALQSGNSQESVTEQDSKDSTYSLSSTLTLSKADYEKHKVYACEVTHQGLSSPVTKSFNRGEC | 0.6 | 2.3 | 1.6 | 0.1 | 1.8 | 2 | 1.8 | 0.1
M103205H795-MY461/M103202L889-SK1 (antibody, human IgG1, kappa, copies: 2 + 2) heavy: QVTLKESGPVLVKPTETLTLTCTVSGIDLSHDDISWVRQAPGKGLEWVGIISYAGSTYYASWAKGRLTISKDTSKNQVVLTMTNMDPVDTATYYCARGVPAYSHGGDLWGQGTLVTVSSASTKGPSVFPLAPSSKSTSGGTAALGCLVKDYFPEPVTVSWNSGALTSGVHTFPAVLQSSGLYSLSSVVTVPSSSLGTQTYICNVNHKPSNTKVDKKVEPKSCDKTHTCPPCPFPELLTGPSVFLFPPKPKDTLMISRTPEVTCVVVDVSDEDPEVKFNWYVDGVEVHNAKTKPREEQYNSTYRVVSVLTVLHQDWLNGKEYKCKVSNKALPKPIEKTISKAKGQPREPQVYTLPPSREEMTKNQVSLTCLVKGFYPSDIAVEWESNGQPENNYKTTPPVLDSDGSFFLYSKLTVDKSRWQQGNVFSCSVMHEALHNHYTQKSLSLSP light: DIVMTQSPATLSLSPGERATLSCTSSQSVYHANWLSWFQQKPGQPPKLLIYWASTLAYGVPSRFSGSGSGTDFTLTISSLQPEDAATYYCAGGYGGGRYAFGQGTKVEIKRTVAAPSVFIFPPSDEQLKSGTASVVCLLNNFYPREAKVQWKVDNALQSGNSQESVTEQDSKDSTYSLSSTLTLSKADYEKHKVYACEVTHQGLSSPVTKSFNRGEC | 1.8 | 4.9 | 3.8 | 0.2 | 3.8 | 3.2 | 2.7 | 0.3
M103205H795-MY460/M103202L889-SK1 (antibody, human IgG1, kappa, copies: 2 + 2) heavy: QVTLKESGPVLVKPTETLTLTCTVSGIDLSHDDISWVRQAPGKGLEWVGIISYAGSTYYASWAKGRLTISKDTSKNQVVLTMTNMDPVDTATYYCARGVPAYSHGGDLWGQGTLVTVSSASTKGPSVFPLAPSSKSTSGGTAALGCLVKDYFPEPVTVSWNSGALTSGVHTFPAVLQSSGLYSLSSVVTVPSSSLGTQTYICNVNHKPSNTKVDKKVEPKSCDKTHTCPPCPEPELLTGPSVFLFPPKPKDTLMISRTPEVTCVVVDVSDEDPEVKFNWYVDGVEVHNAKTKPREEQYNSTYRVVSVLTVLHQDWLNGKEYKCKVSNKALPKPIEKTISKAKGQPREPQVYTLPPSREEMTKNQVSLTCLVKGFYPSDIAVEWESNGQPENNYKTTPPVLDSDGSFFLYSKLTVDKSRWQQGNVFSCSVMHEALHNHYTQKSLSLSP light: DIVMTQSPATLSLSPGERATLSCTSSQSVYHANWLSWFQQKPGQPPKLLIYWASTLAYGVPSRFSGSGSGTDFTLTISSLQPEDAATYYCAGGYGGGRYAFGQGTKVEIKRTVAAPSVFIFPPSDEQLKSGTASVVCLLNNFYPREAKVQWKVDNALQSGNSQESVTEQDSKDSTYSLSSTLTLSKADYEKHKVYACEVTHQGLSSPVTKSFNRGEC | 1 | 3.1 | 2.3 | 0.1 | 2.7 | 2 | 1.9 | 0.1

The remaining lines, values ahead:

KD fold (SG1 = 1) [1] [fold] | KD fold (SG1 = 1) [2] [fold] | KD fold (SG1 = 1) [3] [fold] | KD fold (SG1 = 1) [4] [fold] | KD fold (SG1 = 1) [5] [fold] | KD fold (SG1 = 1) [6] [fold] | KD fold (SG1 = 1) [7] [fold] | KD fold (SG1 = 1) [8] [fold] | Binder
1.5 | 3.9 | 3.1 | 0.2 | 3.1 | 2.2 | 2 | 0.2 | M103205H795-MY463/M103202L889-SK1 (antibody, human IgG1, kappa, copies: 2 + 2) heavy: QVTLKESGPVLVKPTETLTLTCTVSGIDLSHDDISWVRQAPGKGLEWVGIISYAGSTYYASWAKGRLTISKDTSKNQVVLTMTNMDPVDTATYYCARGVPAYSHGGDLWGQGTLVTVSSASTKGPSVFPLAPSSKSTSGGTAALGCLVKDYFPEPVTVSWNSGALTSGVHTFPAVLQSSGLYSLSSVVTVPSSSLGTQTYICNVNHKPSNTKVDKKVEPKSCDKTHTCPPCPHPELLTGPSVFLFPPKPKDTLMISRTPEVTCVVVDVSDEDPEVKFNWYVDGVEVHNAKTKPREEQYNSTYRVVSVLTVLHQDWLNGKEYKCKVSNKALPKPIEKTISKAKGQPREPQVYTLPPSREEMTKNQVSLTCLVKGFYPSDIAVEWESNGQPENNYKTTPPVLDSDGSFFLYSKLTVDKSRWQQGNVFSCSVMHEALHNHYTQKSLSLSP light: DIVMTQSPATLSLSPGERATLSCTSSQSVYHANWLSWFQQKPGQPPKLLIYWASTLAYGVPSRFSGSGSGTDFTLTISSLQPEDAATYYCAGGYGGGRYAFGQGTKVEIKRTVAAPSVFIFPPSDEQLKSGTASVVCLLNNFYPREAKVQWKVDNALQSGNSQESVTEQDSKDSTYSLSSTLTLSKADYEKHKVYACEVTHQGLSSPVTKSFNRGEC
1.7 | 4 | 3.8 | 0.2 | 2.9 | 2.2 | 2.4 | 0.3 | M103205H795-MY462/M103202L889-SK1 (antibody, human IgG1, kappa, copies: 2 + 2) heavy: QVTLKESGPVLVKPTETLTLTCTVSGIDLSHDDISWVRQAPGKGLEWVGIISYAGSTYYASWAKGRLTISKDTSKNQVVLTMTNMDPVDTATYYCARGVPAYSHGGDLWGQGTLVTVSSASTKGPSVFPLAPSSKSTSGGTAALGCLVKDYFPEPVTVSWNSGALTSGVHTFPAVLQSSGLYSLSSVVTVPSSSLGTQTYICNVNHKPSNTKVDKKVEPKSCDKTHTCPPCPGPELLTGPSVFLFPPKPKDTLMISRTPEVTCVVVDVSDEDPEVKFNWYVDGVEVHNAKTKPREEQYNSTYRVVSVLTVLHQDWLNGKEYKCKVSNKALPKPIEKTISKAKGQPREPQVYTLPPSREEMTKNQVSLTCLVKGFYPSDIAVEWESNGQPENNYKTTPPVLDSDGSFFLYSKLTVDKSRWQQGNVFSCSVMHEALHNHYTQKSLSLSP light: DIVMTQSPATLSLSPGERATLSCTSSQSVYHANWLSWFQQKPGQPPKLLIYWASTLAYGVPSRFSGSGSGTDFTLTISSLQPEDAATYYCAGGYGGGRYAFGQGTKVEIKRTVAAPSVFIFPPSDEQLKSGTASVVCLLNNFYPREAKVQWKVDNALQSGNSQESVTEQDSKDSTYSLSSTLTLSKADYEKHKVYACEVTHQGLSSPVTKSFNRGEC
